Test results as given in the supplement of paper PMC10567573.

B1: TRIM55 (parent)
chain: YLPTRGGTTMASGGRFRCPSCRHE

Variants of: B1
Test: protein stability index of a GFP-peptide fusion (GPS, HEK-293T) (PSI 1-6); higher = more stable
Conditions: c terminus: a fixed tail appended
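Note: lentivirally expressed fusions sorted by FACS into six bins by GFP to DsRed ratio, PSI derived from sequencing read proportions per bin multiplied by bin number.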

Row | Variant | protein stability index
1 | YLITRGGTTMASGGRFRCPSCRHE [P3I] | 1
2 | YLNTRGGTTMASGGRFRCPSCRHE [P3N] | 2.29
3 | YLVTRGGTTMASGGRFRCPSCRHE [P3V] | 1.97
4 | YLRTRGGTTMASGGRFRCPSCRHE [P3R] | 3.49
5 | YLLTRGGTTMASGGRFRCPSCRHE [P3L] | 1.32
6 | YLDTRGGTTMASGGRFRCPSCRHE [P3D] | 1.04
7 | YLETRGGTTMASGGRFRCPSCRHE [P3E] | 1
8 | YLPTRGGTPMASGGRFRCPSCRHE [T9P] | 2.49
9 | YLPTRGGTRMASGGRFRCPSCRHE [T9R] | 1.82
10 | YLPTRGGTEMASGGRFRCPSCRHE [T9E] | 2.66
11 | YLPTRGGTNMASGGRFRCPSCRHE [T9N] | 2.01
12 | YLPTRGGTQMASGGRFRCPSCRHE [T9Q] | 1.11
13 | YLPTRGGTFMASGGRFRCPSCRHE [T9F] | 2.12
14 | YLPTRGGTMMASGGRFRCPSCRHE [T9M] | 1.36
15 | YLPTRGGTGMASGGRFRCPSCRHE [T9G] | 1.26
16 | YLPTRGGTAMASGGRFRCPSCRHE [T9A] | 2.77
17 | YLPYRGGTTMASGGRFRCPSCRHE [T4Y] | 1.24
18 | YLPQRGGTTMASGGRFRCPSCRHE [T4Q] | 1.7
19 | YLPWRGGTTMASGGRFRCPSCRHE [T4W] | 1
20 | YLPERGGTTMASGGRFRCPSCRHE [T4E] | 3.35
21 | YLPHRGGTTMASGGRFRCPSCRHE [T4H] | 1.19
22 | YLPMRGGTTMASGGRFRCPSCRHE [T4M] | 1.26
23 | YLPSRGGTTMASGGRFRCPSCRHE [T4S] | 2.1
24 | YLPVRGGTTMASGGRFRCPSCRHE [T4V] | 4.07

Row | Variant | protein stability index
25 | YLPCRGGTTMASGGRFRCPSCRHE [T4C] | 3.98
26 | YLPLRGGTTMASGGRFRCPSCRHE [T4L] | 2.73
27 | YLPPRGGTTMASGGRFRCPSCRHE [T4P] | 1.36
28 | YLPTAGGTTMASGGRFRCPSCRHE [R5A] | 1.87
29 | YLPTIGGTTMASGGRFRCPSCRHE [R5I] | 1.98
30 | YLPTVGGTTMASGGRFRCPSCRHE [R5V] | 1.51
31 | YLPTHGGTTMASGGRFRCPSCRHE [R5H] | 1.32
32 | YLPTGGGTTMASGGRFRCPSCRHE [R5G] | 2
33 | YLPTDGGTTMASGGRFRCPSCRHE [R5D] | 1.73
34 | YLPTQGGTTMASGGRFRCPSCRHE [R5Q] | 2.28
35 | YLPTNGGTTMASGGRFRCPSCRHE [R5N] | 1.44
36 | YLPTWGGTTMASGGRFRCPSCRHE [R5W] | 3.96
37 | YLPTEGGTTMASGGRFRCPSCRHE [R5E] | 2.4
38 | NLPTRGGTTMASGGRFRCPSCRHE [Y1N] | 3.07
39 | VLPTRGGTTMASGGRFRCPSCRHE [Y1V] | 1.89
40 | SLPTRGGTTMASGGRFRCPSCRHE [Y1S] | 3.15
41 | QLPTRGGTTMASGGRFRCPSCRHE [Y1Q] | 2.45
42 | WLPTRGGTTMASGGRFRCPSCRHE [Y1W] | 2.99
43 | MLPTRGGTTMASGGRFRCPSCRHE [Y1M] | 1.67
44 | YLPTRGGRTMASGGRFRCPSCRHE [T8R] | 1.94
45 | YLPTRGGSTMASGGRFRCPSCRHE [T8S] | 1.14
46 | YLPTRGGCTMASGGRFRCPSCRHE [T8C] | 3.19
47 | YLPTRGGHTMASGGRFRCPSCRHE [T8H] | 2.88
48 | YLPTRGGMTMASGGRFRCPSCRHE [T8M] | 4.36

Row | Variant | protein stability index
49 | YLPTRGGNTMASGGRFRCPSCRHE [T8N] | 1.98
50 | YLPTRGGYTMASGGRFRCPSCRHE [T8Y] | 4.26
51 | YLPTRGGKTMASGGRFRCPSCRHE [T8K] | 2.1
52 | YLPTRGGLTMASGGRFRCPSCRHE [T8L] | 4.11
53 | YLPTRGGATMASGGRFRCPSCRHE [T8A] | 1.11
54 | YLPTRGGDTMASGGRFRCPSCRHE [T8D] | 1.36
55 | YLPTRGGVTMASGGRFRCPSCRHE [T8V] | 2.03
56 | YLPTRGETTMASGGRFRCPSCRHE [G7E] | 1.75
57 | YLPTRGTTTMASGGRFRCPSCRHE [G7T] | 2.33
58 | YLPTRGYTTMASGGRFRCPSCRHE [G7Y] | 2.17
59 | YLPTRGQTTMASGGRFRCPSCRHE [G7Q] | 2.24
60 | YLPTRGATTMASGGRFRCPSCRHE [G7A] | 1.64
61 | YLPTRGITTMASGGRFRCPSCRHE [G7I] | 1.45
62 | YLPTRGWTTMASGGRFRCPSCRHE [G7W] | 1.5
63 | YLPTRGPTTMASGGRFRCPSCRHE [G7P] | 2.91
64 | YLPTRGRTTMASGGRFRCPSCRHE [G7R] | 1.12
65 | YLPTRGVTTMASGGRFRCPSCRHE [G7V] | 1.37
66 | YLPTRGFTTMASGGRFRCPSCRHE [G7F] | 1.26
67 | YLPTRGKTTMASGGRFRCPSCRHE [G7K] | 1.01
68 | YLPTRGLTTMASGGRFRCPSCRHE [G7L] | 1.34
69 | YLPTRGGTTAASGGRFRCPSCRHE [M10A] | 2.85
70 | YLPTRGGTTGASGGRFRCPSCRHE [M10G] | 2.61
71 | YLPTRGGTTEASGGRFRCPSCRHE [M10E] | 1.97
72 | YLPTRGGTTCASGGRFRCPSCRHE [M10C] | 2.91

Row | Variant | protein stability index
73 | YWPTRGGTTMASGGRFRCPSCRHE [L2W] | 2.7
74 | YKPTRGGTTMASGGRFRCPSCRHE [L2K] | 1.32
75 | YIPTRGGTTMASGGRFRCPSCRHE [L2I] | 2.22
76 | YEPTRGGTTMASGGRFRCPSCRHE [L2E] | 2.98
77 | YPPTRGGTTMASGGRFRCPSCRHE [L2P] | 1.71
78 | YQPTRGGTTMASGGRFRCPSCRHE [L2Q] | 1.02
79 | YMPTRGGTTMASGGRFRCPSCRHE [L2M] | 1.93
80 | YFPTRGGTTMASGGRFRCPSCRHE [L2F] | 2.46
81 | YTPTRGGTTMASGGRFRCPSCRHE [L2T] | 1.38
82 | YHPTRGGTTMASGGRFRCPSCRHE [L2H] | 2.78
83 | YRPTRGGTTMASGGRFRCPSCRHE [L2R] | 1.77
84 | YLPTRIGTTMASGGRFRCPSCRHE [G6I] | 1.04
85 | YLPTRLGTTMASGGRFRCPSCRHE [G6L] | 1.76
86 | YLPTRWGTTMASGGRFRCPSCRHE [G6W] | 1.46
87 | YLPTRQGTTMASGGRFRCPSCRHE [G6Q] | 2.15
88 | YLPTREGTTMASGGRFRCPSCRHE [G6E] | 1.67
89 | YLPTRCGTTMASGGRFRCPSCRHE [G6C] | 1.84
90 | YLPTRDGTTMASGGRFRCPSCRHE [G6D] | 2.45
91 | YLPTRYGTTMASGGRFRCPSCRHE [G6Y] | 1.37
92 | YLPTRNGTTMASGGRFRCPSCRHE [G6N] | 1.21
93 | YLPTRSGTTMASGGRFRCPSCRHE [G6S] | 1.97
94 | YLPTRPGTTMASGGRFRCPSCRHE [G6P] | 1.78
